Data: patent US7960364

Biological target: HIV-1 envelope glycoprotein gp120 (UniProt P04578)

trypsin
saturability of trypsin-catalyzed gp120 cleavage with gp120 concentration: nonsaturable at concentrations up to 1 µM
